Results published in patent US20220267412A1.

Target: porcine pancreatic elastase (porcine) (UniProt P00772)
Experiment: cell-based or functional assay

porcine pancreatic elastase (porcine), sequence (P00772 27-266): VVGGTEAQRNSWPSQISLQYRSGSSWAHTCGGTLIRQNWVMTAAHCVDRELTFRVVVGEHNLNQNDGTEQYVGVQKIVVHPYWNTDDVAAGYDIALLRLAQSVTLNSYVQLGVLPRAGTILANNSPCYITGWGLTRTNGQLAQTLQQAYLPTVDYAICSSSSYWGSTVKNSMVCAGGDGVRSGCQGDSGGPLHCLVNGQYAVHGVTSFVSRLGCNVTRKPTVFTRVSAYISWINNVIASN

amount of purified protein to fully inhibit PPE (typically 160 nM, 200 uL, +40 mM 2-ME): 13 µg
Substance: human serpin B1 C344S variant (from UniProt P30740 1-379)
